Measured values published in the DeepSol protein solubility set.

Assay: soluble on expression in E. coli; label from the status in PepcDB or PDB records

| Sequence | soluble on expression in E. coli |
| --- | --- |
| KPYVSEDSRVYSPQEPTLVVKSVDNSVSIDVTSKYNVNLYRNGELIQKNVIAQSYSDTPTGFACYLAESINDKGFRSNPSQPVCVGEEIRIKLDGEYQPLKDNVSVVTVSKDSGIVKGAESFTAPVTGTYQFDAWYNNNLGQLNTGITNTVKLLEVLDDAGKVVGQGYLQMGHIGENQGMRYSTPIEVALEQGKTYQFALKDHFNMSYLTSNETYIYAGGIEGEKNEAQIADIRITPLM | not soluble |
| MGSDKIHHHHHHMAGEPRLGRTGPRVSRVGLGLWQFGSPMWGGKALSADVLARGLSIAVEEGINLLDTAEVYGMGSSERMLGEALKRLNAREDFVIVSKVAGFRSTAGDIVKGARGIAGRLSSAPDVILHHWPPPVYSRLCSVVRGLEQAVNEGLASYYGFSNYGEDLLGDALSCTRRLEPVADQILYNLAYRTPEQRLIPLLHQHGMTPIAWSPLAKGALAGFKGEPTRAQAGDPVFRTALEDTGLQEVLESVARRLGASKASVALAWVAYKGAVPIVGWRRPERVREAAAAARLKLSEEDVALLDEASKRYVTLWGSSYSPPGLRRIRLIPGALQRLAIRLWGGI | not soluble |
| MIMNQQLNATKKDKLQVIDWLIENFPNAFFKKGNQVKPLKIGIFDDLIDFYERLDTPPFSKKSLREALSYYSASPAYLSCQKPDTARVDIYGNEVDVVTPEQAKYAYQRYQERYGNKKSQELK | not soluble |
| MPLPMNSGEKVKAVGRSYNPGRPLCLEDRKKIVRLYEEGCRVSHIARLIGVTHSCVSKIMSRYRRTGSVQPRSFRATENQENDNATWQQQQLKQQQKKEKPLPFSIERF | soluble |
| GSMIDKSAFVHPTAIVEEGASIGANAHIGPFCIVGPHVEIGEGTVLKSHVVVNGHTKIGRDNEIYQFASIGEVNQDLKYAGEPTRVEIGDRNRIRESVTIHRGTVQGGGLTKVGSDNLLMINAHIAHDCTVGNRCILANNATLAGHVSVDDFAIIGGMTAVHQFCIIGAHVMVGGCSGVAQDVPPYVIAQGNHATPFGVNIEGLKRRGFSREAITAIRNAYKLIYRSGKTLDEVKPEIAELAETYPEVKAFTDFFARSTRGLIR | soluble |
| MRRDYMSVYDYPVPTTPWLNTAPGLFIDDYTSTASSTVSSLSRTLIYDYEQNPDSGNNVVALAAKAGYSTWWISNQGKLGEHDTRISVIASDAEHATFLKKGSFASRKTDDKLLLQETERALADTSSPKIIFLHMMGSHPNPCDSLNSLEHHHHHH | not soluble |
| SLIDNPHAQDYWPNRGQMDVQGLAVKYTEAGRAVLSDISFSVEGGLSMGLLGRTGSGKSTLLSALLRLASTDGEISIDGISWNSVPLEKWRKAFGVVPQKVFILTGTFRMNLDPHGRYSDEELWRVADQVGLKSVIEQFPDRLDFQLENGGSVLSHGHKQLMCLARSILSKARILLLDEPSAYLDTITLQVLRKTLKHAFSDCTVILSEAKVEPLLECDSFLVIEGSSVKSYDSIQKLLNEMSDLKQAVSAAD | not soluble |
| MGSDKIHHHHHHMTDSRQRLLVFAPTRRVASETFVRANLAGLPFEVSAYFGDEFPLDQPGRFAYGLGVLLSKIFTRLGWLRLAELPAAFVAWILIRRHRPDVVLAEFGFHAVRVMQAAARVDVPFVVHFRGSDLSANRRLGVLRSRYRRLVSIASGVVCKSRPMATTLEQLGASPSTILISPSGANPALFSVGDPALAAPVFLAVGRFVAKKGPLQTIRAFAGQPQGELWMVGEGPLLAEARRLVQALQVQDRVRFLGVKTQSEVAALMRQARVFVQHSQIAPDGDSEGNPVSVMEAQLCGLPVVATLHAGIPDVVLDGSTGLLVEENDVDGMAEAMTRLMADPNLAAQFGLAGRERVLAAFTLEHHLQDLTRFLQQQIRSTTHF | not soluble |
| MKKILLSAAVLLLSLGTYAQNNPTSLPTDIRIKKVVYRENDVIPVHGIPFTTTQIQFAKQERVLDIEGGDTTAWMVTYHPQLENMIFIKPTMFDSKTNMTVITNQRAYYFSLTSAKKLEQEPGKKTYALKFEYPQPQPVNTKNTTPNKTVHPKVVNTAYRFSGSPQLVPRHVFDDGKFTYFELSAQGSVPAIFAVDDQSGKESTVNTRREGKFIVVQRLAPQFTLRQGGLTASVFNTPEINRIRANRRPK | not soluble |
| MGSDKIHHHHHHMSNSDPIERFFRSGLKLPHLRILVSLADLGQVTRVAAAFHVTQPAISKQIAEIEDALGVAVVNRVGNALELTGIGQVIVSCGREVLRHIELAKRDVSALASGTAGHVRVGAVVTIPEPLIANSVQLFIRRAPSASLSFAESTLDRLIRMMDDGELDIALGRNRIAGANSAQSTLKQEILHREPFVFVAGAHHPLGDPDRPTTWADLRGCRWITPMHGSPAYATLVEALAVHDLTPDPGAVESSSLALNVALIRSGDFVSILPMSVARPQVMRGNMRVLPLPPLQPLGEIVAYWRLGSTTPAAQLFNACLKEVSSDLLGERIEAG | not soluble |
| SLALSPGNLQKTAAGPDGQPQLAEKAPEKAQVDVPAAGDTAGLQPQSGRSGANINRATLPDGNVVSVYSPRPRDSDGPVLMSGQTYGQDPRMATRPNEELLEETAFGQLPVVGADGLRPMEQYARPWSGARGTRVAIVVGGLGLSQTGSQKAIRDLPPEVTLGFAASGNSLQRWMQDARREGHEILLQIPLEPFGYPGTNPGPDTLLAGDPAKVNIDRLHRSMAKITNYTGVMNYLGGRFLAEQSALEPVMRDIGKRGLLFLDDGSSAQSLSGGIAKAISAPQGFADVLLDGEVTEASILRKLDDLERIARRNGQAIGVASAFDESIAAISKWSREAGGRGIEIVGVSALVSGQAGQ | soluble |
| MGSDKIHHHHHHMKEQKLSNRFCPEGMTVEEWQVGLRREFAEQNPFDVEHLDENRIWGDYLVANGRNRYRVAFRGVRSERNYCSCLDFRTNGLGTCKHIEAVTLFLQDQVPGYPWGEFDYTPEYSSIYVSYKGGRSIKMRVGREETARFEALRARFFDESGTLPPENYSFLPQICDEAKDIAASFRCYEDVFDLTQEHCRRMEWQDYLRETNPDKRVDNEYTADMPEEMRRHVYDLAYEGHGVMVGLPSDVIVREVVALADVYLRDQPGATGYVIINDPQRFILWRNAFANPALRRLPIEVMHASAFVKKVANNVPPCTFMFVEQAARLKEWRDPVSVAIKRMQIDHLYMNLETIEDLTPVQFSSVVQHIDPFILGPFYRFIRDYRPIFPLRNDGSNLPDDVRDFMFLYTSDSIREMNEMLPPIRTAEILLHGTDAEEEIDKLLRHLNRVLSNDTLREVFLKRISMIVGAS | not soluble |
| MDAEPKRKFGVVVVGVGRAGSVRLRDLKDPRSAAFLNLIGFVSRRELGSLDEVRQISLEDALRSQEIDVAYICSESSSHEDYIRQFLQAGKHVLVEYPMTLSFAAAQELWELAAQKGRVLHEEHVELLMEEFEFLRREVLGKELLKGSLRFTASPLEEERFGFPAFSGISRLTWLVSLFGELSLISATLEERKEDQYMKMTVQLETQNKGLLSWIEEKGPGLKRNRYVNFQFTSGSLEEVPSVGVNKNIFLKDQDIFVQKLLDQVSAEDLAAEKKRIMHCLGLASDIQKLCHQKK | soluble |
| MILDVDYITEEGKPVIRLFKKENGKFKIEHDRTFRPYIYALLRDDSKIEEVKKITGERHGKIVRIVDVEKVEKKFLGKPITVWKLYLEHPQDVPTLREKVREHPAVVDIFEYDIPFAKRYLIDKGLIPMEGEEELKILAFDIETLYHEGEEFGKGPIIMISYADENEARVITWKNIDLPYVESVSTEKEMIKRFLRIIREKDPDIIVTYNGDSFDFPYLAKRAEKLGIKLTIGRDGSEPKMQRIGDMTAVEVKGRIHFDLYHVIRTTINLPTYTLEAVYEAIFGKPKEKVYADEIAKAWESGENLERVAKYSMEDAKATYELGKEFLPMEIQLSRLVGQPLWDVSRSSTGNLVEWFLLRKAYERNEVAPNKPSEEEYQRRLRESYTGGFVKEPEKGLWENIVYLDYKSLYPSIIITHNVSPDTLNLEGCKNYDIAPQVGHKFCKDIPGFIPSLLGHLLEERQKIKTKMKETQDPIEKILLDYRQKAIKLLANSFYGYYGYAKARWYCKECAESVTAWGRKYIELVWKELEEKFGFKVLYIDTDGLYATIPGGESEEIKKKALEFVKYINSKLPGLLELEYEGFYKRGFFVTKKRYAVIDEEGKVITRGLEIVRRDWSEIAKETQARVLETILKHGDVEEAVRIVKEVIQKLANYEIPPEKLAIYEQITRPLHEYKAIGPHVAVAKKLAAKGVKIKPGMVIGYIVLRGDGPISNRAILAEEYDPKKHKYDAEYYIENQVLPAVLRILEGFGYRKEDLRYQKTRQVGLTSWLNIKKS | soluble |
| ASTSRLDALPRVTCPNHPDAILVEDYRAGDMICPECGLVVGDRVIDVGSEWRTFSNDK | soluble |
